US20240418729A1
Each block holds one substance with its values, some of them ahead of it.

How the values were obtained:
[1] = biological target: human lambda light chains (lambda LCs) of control pooled human serum (human); assay: affinity capture from 100 µl IgG-depleted serum, elution, LysC digestion, PRM mass spectrometry
[2] = biological target: human kappa light chains (kappa LCs) of control pooled human serum (human); assay: affinity capture from 50 µl IgG-depleted serum, elution, LysC digestion, PRM mass spectrometry
[3] = biological target: human kappa light chains (kappa LCs) of control pooled human serum (human); assay: affinity capture from IgG-depleted serum, elution, LysC digestion, PRM mass spectrometry

- fold increase in lambda FLC dimer signal compared to un-enriched serum [1]: 113 fold
Substance: Capture Select affinity beads specific for lambda (LambdaXP) LCs

- fold increase in kappa FLC dimer signal compared to un-enriched serum [2]: 186 fold
Substance: Capture Select affinity beads specific for kappa (KappaXP) LCs

- fold increase in kappa FLC dimer signal compared to un-enriched serum [3]: 155 fold
Substance: protein L agarose
